Laboratory results: article PMC5376648, “Cell-free reconstitution reveals centriole cartwheel assembly mechanisms” (Nature Communications, 2017)

Experiments:
[1] = biological target: the molecule itself; assay: cryo-EM and cryo-electron tomography of assemblies formed in a cell-free assay; soluble protein alone (CrSAS-6_FL 10 uM or His-Stag-CrSAS-6_NL 20 uM in 20 mM Tris pH 7.5, 150 mM NaCl) dialysed >16 h against 10 mM K-PIPES pH 7.2; structures formed in solution vitrified and imaged
[2] = biological target: the molecule itself; assay: negative staining EM of assemblies; CrSAS-6_NL diluted in 10 mM K-PIPES pH 7.0 to 3 ug/ml, deposited on carbon-coated grids, stained with 2% uranyl acetate

B1: full-length CrSAS-6 (HisCrSAS-6_FL) (natural protein, Chlamydomonas reinhardtii, UniProt A9CQL4 1-728, looked up)
chain: MPLLLDDGDPKAQTGFDLSTATTLFWRPVPVHVKQQDREDVLEELTFRILTGVAKQNHNLRILRIHISSDSDLFFLHTLEVSEEDFQSLKNDQGILVDFASFPGKIISLLEKCILAQPGDSPRFQAVLTIRGGESVFKIVEINDFKQLPHITLAFRPGNDSVVKQFLAFRLSEVKGTCHDLSDDLSRTRDDRDSMVAQLAQCRQQLAQLREQYDKHLLEVQAQAKTQQASAHEERIREKSQLKDQFEKERGEMEGRYRDQIAALNTRLGELDTENRKLREVKYELDTKVSELSHKLGSSEGSNRSLEEETARLRSLNQQLSSSKHELEIQLNEAKAKVLALDEKAQSQGDVIEQQRGRLRDMEAALRQTEQRCADLRDTLASAEGRAKEAQAEVLKGNQAIEKLTNDLRLAKEKTKRKAAIILRQEEELQEREQSLANATRDVGVLGQQAESLRKDVASLHSENDSLRSKLEDSKQQLQSNEQMIRWLNQQVTEAQLHASGATVAGSRYAFRPSAALPGSMPPPSVAATPAVGLLAAPGPSTAYKPGGTTSRYASTLGVTGLSSGLSGAGATSVGAAVAGGSYGAGGDSSYRPGVGGAYASSGGAGGFGGSVGGGGQVGGSGSAIGAATGAGSALGTYRSSYAASTHPSPGGVTAGMGSTLTTPAVNRYAAGSYSSVSSSLSFGGGLGAARAVDATPAASKYGVGFSNAAMGVVGTVGGAGGTDAQRA
notes: SAS-6 protein Bld12p (CrSAS-6) of Chlamydomonas reinhardtii, full length; A 6xHis tag stands between the Prescission site and CrSAS-6 and remains after cleavage; also called Bld12p; GST-HisCrSAS-6_FL (before cleavage); source: E. coli BL21(DE3), purified (glutathione agarose beads, eluted with Prescission Protease to remove GST); not shown: GST, N-terminal, cleaved; His6, N-terminal, kept
Q: Does B1 bind [1]?
A: Result: binds

B2: His-Stag-CrSAS-6_NL(1-503) (domain or fragment, Chlamydomonas reinhardtii, UniProt A9CQL4 1-503, looked up)
chain: MPLLLDDGDPKAQTGFDLSTATTLFWRPVPVHVKQQDREDVLEELTFRILTGVAKQNHNLRILRIHISSDSDLFFLHTLEVSEEDFQSLKNDQGILVDFASFPGKIISLLEKCILAQPGDSPRFQAVLTIRGGESVFKIVEINDFKQLPHITLAFRPGNDSVVKQFLAFRLSEVKGTCHDLSDDLSRTRDDRDSMVAQLAQCRQQLAQLREQYDKHLLEVQAQAKTQQASAHEERIREKSQLKDQFEKERGEMEGRYRDQIAALNTRLGELDTENRKLREVKYELDTKVSELSHKLGSSEGSNRSLEEETARLRSLNQQLSSSKHELEIQLNEAKAKVLALDEKAQSQGDVIEQQRGRLRDMEAALRQTEQRCADLRDTLASAEGRAKEAQAEVLKGNQAIEKLTNDLRLAKEKTKRKAAIILRQEEELQEREQSLANATRDVGVLGQQAESLRKDVASLHSENDSLRSKLEDSKQQLQSNEQMIRWLNQQVTEAQLHASGAT
notes: CrSAS-6 (Bld12p) of Chlamydomonas reinhardtii, residues 1-503; C-terminal truncation that keeps the N-terminal domain and the entire coiled coil; This form was used for cryo-EM and cryo-ET; source: E. coli BL21(DE3), purified (Ni-NTA, size exclusion chromatography)
Q: Does B2 bind [1]?
A: Result: binds

B3: CrSAS-6_NL(1-503), 6xHis tag cleaved (domain or fragment, Chlamydomonas reinhardtii, UniProt A9CQL4 1-503, looked up)
chain: B2 chain
notes: CrSAS-6 (Bld12p) of Chlamydomonas reinhardtii, residues 1-503; This form was used for negative staining EM; also called 6xHis-CrSAS-6_NL(1-503) (before cleavage)
Q: Does B3 bind [2]?
A: Result: binds
